Laboratory results reported in doi:10.1101/2021.08.20.457142.

B1: MKK7 D-site peptide (second D-site) / JNK1 alpha1 (MAPK8 isoform 1) L198A, full length (parent complex)
chain 1: SQPQRPRPTLQLPLANEAFEQP
chain 2: MSRSKRDNNFYSVEIGDSTFTVLKRYQNLKPIGSGAQGIVCAAYDAILERNVAIKKLSRPFQNQTHAKRAYRELVLMKCVNHKNIIGLLNVFTPQKSLEEFQDVYIVMELMDANLCQVIQMELDHERMSYLLYQMLCGIKHLHSAGIIHRDLKPSNIVVKSDCTLKILDFGLARTAGTSFMMTPYVVTRYYRAPEVIAGMGYKENVDLWSVGCIMGEMVCHKILFPGRDYIDQWNKVIEQLGTPCPEFMKKLQPTVRTYVENRPKYAGYSFEKLFPDVLFPADSEHNKLKASQARDLLSKMLVIDASKRISVDEALQHPYINVWYDPSEAEAPPPKIPDKQLDEREHTIEEWKELIYKEVMDLEERTKNGVIRGQPSPLAQVQQ
B2: MKK6 D-site peptide / p38-alpha (MAPK14) L195A, full length (parent complex)
chain 1: SQSKGKKRNPGLKIPKEAFEQP
chain 2: MSQERPTFYRQELNKTVWEVPERYQNLSPVGSGAYGSVCAAFDTKTGHRVAVKKLSRPFQSIIHAKRTYRELRLLKHMKHENVIGLLDVFTPARSLEEFNDVYLVTHLMGADLNNIVKCQKLTDDHVQFLIYQILRGLKYIHSADIIHRDLKPSNLAVNEDCELKILDFGLARHTDDEMTGYVATRWYRAPEIMANWMHYNQTVDIWSVGCIMAELLTGRTLFPGTDHIDQLKLILRLVGTPGAELLKKISSESARNYIQSLAQMPKMNFANVFIGANPLAVDLLEKMLVLDSDKRITAAQALAHAYFAQYHDPDDEPVAEPYDQSFESRDFLIDEWKSLTYDEVISFVPPPLDQEEMES

Variants of: B1

Row | screen value | Variant
1 | -0.854 Z-score of the enrichment rate within one screen of 711 sequences | chain 1 P3A, chain 1 L12A
2 | -0.534 Z-score of the enrichment rate within one screen of 711 sequences | chain 1 L10A, chain 1 Q11A
3 | -0.724 Z-score of the enrichment rate within one screen of 711 sequences | chain 1 P6A, chain 1 L10A
4 | 1.45 Z-score of the enrichment rate within one screen of 711 sequences | chain 1 Q11S
5 | 2.16 Z-score of the enrichment rate within one screen of 711 sequences | chain 1 Q11F
6 | 0.901 Z-score of the enrichment rate within one screen of 711 sequences | chain 1 Q11P
7 | 1.44 Z-score of the enrichment rate within one screen of 711 sequences | chain 1 Q11A
8 | 1.63 Z-score of the enrichment rate within one screen of 711 sequences | chain 1 P3W
9 | 1.24 Z-score of the enrichment rate within one screen of 711 sequences | chain 1 P3Q
10 | 1.72 Z-score of the enrichment rate within one screen of 711 sequences | chain 1 P13K
11 | 1.22 Z-score of the enrichment rate within one screen of 711 sequences | chain 1 P13M
12 | 0.542 Z-score of the enrichment rate within one screen of 711 sequences | chain 1 P13G
13 | -0.173 Z-score of the enrichment rate within one screen of 711 sequences | chain 1 L10C
14 | 1.41 Z-score of the enrichment rate within one screen of 711 sequences | chain 1 Q4C
15 | 1.56 Z-score of the enrichment rate within one screen of 711 sequences | chain 1 Q4V
16 | 0.92 Z-score of the enrichment rate within one screen of 711 sequences | chain 1 Q4D
17 | 1.91 Z-score of the enrichment rate within one screen of 711 sequences | chain 1 Q4K
18 | 1.68 Z-score of the enrichment rate within one screen of 711 sequences | chain 1 Q4A, chain 1 N16A
19 | 0.187 Z-score of the enrichment rate within one screen of 711 sequences | chain 1 P6A, chain 1 R7A
20 | -0.584 Z-score of the enrichment rate within one screen of 711 sequences | chain 1 L12A, chain 1 L14A
21 | -0.519 Z-score of the enrichment rate within one screen of 711 sequences | chain 1 T9A, chain 1 L10A
22 | 1.48 Z-score of the enrichment rate within one screen of 711 sequences | chain 1 A15N

Row | screen value | Variant
23 | 1.08 Z-score of the enrichment rate within one screen of 711 sequences | chain 1 A15D
24 | 1.61 Z-score of the enrichment rate within one screen of 711 sequences | chain 1 N16Q
25 | 1.15 Z-score of the enrichment rate within one screen of 711 sequences | chain 1 N16S
26 | 0.296 Z-score of the enrichment rate within one screen of 711 sequences | chain 1 P8E
27 | 0.456 Z-score of the enrichment rate within one screen of 711 sequences | chain 1 P8A
28 | 0.573 Z-score of the enrichment rate within one screen of 711 sequences | chain 1 R5L
29 | 0.459 Z-score of the enrichment rate within one screen of 711 sequences | chain 1 R5Y
30 | 0.06 Z-score of the enrichment rate within one screen of 711 sequences | chain 1 R5S
31 | -0.624 Z-score of the enrichment rate within one screen of 711 sequences | chain 1 L12Q
32 | -0.442 Z-score of the enrichment rate within one screen of 711 sequences | chain 1 L12G
33 | 1.08 Z-score of the enrichment rate within one screen of 711 sequences | chain 1 P3A, chain 1 Q11A
34 | 0.556 Z-score of the enrichment rate within one screen of 711 sequences | chain 1 P6A, chain 1 L14A
35 | 0.328 Z-score of the enrichment rate within one screen of 711 sequences | chain 1 L14Y
36 | 0.76 Z-score of the enrichment rate within one screen of 711 sequences | chain 1 L14P
37 | 0.415 Z-score of the enrichment rate within one screen of 711 sequences | chain 1 L14H
38 | 0.848 Z-score of the enrichment rate within one screen of 711 sequences | chain 1 T9A, chain 1 P13A
39 | 0.956 Z-score of the enrichment rate within one screen of 711 sequences | chain 1 P3A, chain 1 T9A
40 | 1.27 Z-score of the enrichment rate within one screen of 711 sequences | chain 1 P6M
41 | 1.28 Z-score of the enrichment rate within one screen of 711 sequences | chain 1 P6N
42 | 0.933 Z-score of the enrichment rate within one screen of 711 sequences | chain 1 P6Y
43 | 1.52 Z-score of the enrichment rate within one screen of 711 sequences | chain 1 P6K
44 | 0.914 Z-score of the enrichment rate within one screen of 711 sequences | chain 1 P6A, chain 1 P13A

Variants of: B2

Row | screen value | Variant
45 | -1.05 Z-score of the enrichment rate within one screen of 711 sequences | chain 1 SQSKGKKRNPGLGIPKEAFEQP
46 | 0.119 Z-score of the enrichment rate within one screen of 711 sequences | chain 1 SQSKGKKRNPGLFIPKEAFEQP
47 | 0.477 Z-score of the enrichment rate within one screen of 711 sequences | chain 1 SQSKGKKRNPGLIIPKEAFEQP
48 | 0.135 Z-score of the enrichment rate within one screen of 711 sequences | chain 1 SQSKGKKSNPGLKIPKEAFEQP
49 | 0.157 Z-score of the enrichment rate within one screen of 711 sequences | chain 1 SQSKGKKYNPGLKIPKEAFEQP
50 | 0.268 Z-score of the enrichment rate within one screen of 711 sequences | chain 1 SQSKAKARNPGLKIPKEAFEQP
51 | -0.984 Z-score of the enrichment rate within one screen of 711 sequences | chain 1 SQSKGAKRNPGLAIPKEAFEQP
52 | 1.17 Z-score of the enrichment rate within one screen of 711 sequences | chain 1 SQSKGKGRNPGLKIPKEAFEQP
53 | 0.633 Z-score of the enrichment rate within one screen of 711 sequences | chain 1 SQSKGKVRNPGLKIPKEAFEQP
54 | 0.315 Z-score of the enrichment rate within one screen of 711 sequences | chain 1 SQSKGKKRAAGLKIPKEAFEQP
55 | 0.278 Z-score of the enrichment rate within one screen of 711 sequences | chain 1 SQSKGKKRNPALKIPAEAFEQP
56 | 2.7 Z-score of the enrichment rate within one screen of 711 sequences | chain 1 SQAKGKKRNPGLKIAKEAFEQP
57 | -0.715 Z-score of the enrichment rate within one screen of 711 sequences | chain 1 SQSKGAKRNPGAKIPKEAFEQP
